Test results taken from the Immune Epitope Database (IEDB).

Columns and labels:
[1] = biological target: HLA-B*40:01; experiment: IEDB peptide-MHC binding, purified MHC/competitive/radioactivity; filed as Kd, often an IC50 or EC50 that approximates it; ≥ and ≤ were set here for values at or beyond the usual limits of such assays
[2] = biological target: HLA-B*45:01; experiment: as above
[3] = biological target: HLA-B*44:03; experiment: as above
[4] = biological target: HLA-B*40:02; experiment: as above
[5] = biological target: HLA-B*44:02; experiment: as above
[6] = biological target: HLA-B*18:01; experiment: as above
[7] = biological target: HLA-B*45:06; experiment: IEDB peptide-MHC binding, purified MHC/competitive/fluorescence; filed as Kd, often an IC50 or EC50 that approximates it; ≥ and ≤ were set here for values at or beyond the usual limits of such assays; conditions: source organism: Human herpesvirus 4 strain B95-8
[8] = biological target: HLA-B*15:42; experiment: as above; conditions: source organism: Human herpesvirus 4 strain B95-8
[9] = biological target: HLA-B*83:01; experiment: as above; conditions: source organism: Human herpesvirus 4 strain B95-8
[10] = biological target: HLA-B*18:01; experiment: IEDB peptide-MHC binding, purified MHC/direct/fluorescence; filed as Kd, often an IC50 or EC50 that approximates it; ≥ and ≤ were set here for values at or beyond the usual limits of such assays
[11] = biological target: HLA-B*40:01; experiment: as above
[12] = biological target: HLA-A*26:01; experiment: IEDB peptide-MHC binding, purified MHC/competitive/fluorescence; filed as Kd, often an IC50 or EC50 that approximates it; ≥ and ≤ were set here for values at or beyond the usual limits of such assays; conditions: source organism: Bacillus anthracis str. A0488
[13] = biological target: HLA-B*51:01; experiment: as above
[14] = biological target: HLA-B*44:02; experiment: IEDB peptide-MHC binding, purified MHC/direct/fluorescence; filed as Kd, often an IC50 or EC50 that approximates it; ≥ and ≤ were set here for values at or beyond the usual limits of such assays
[15] = biological target: HLA-B*15:01; experiment: IEDB peptide-MHC binding, purified MHC/competitive/fluorescence; filed as Kd, often an IC50 or EC50 that approximates it; ≥ and ≤ were set here for values at or beyond the usual limits of such assays; conditions: source organism: Bacillus anthracis str. A2012
[16] = biological target: HLA-A*24:03; experiment: IEDB peptide-MHC binding, purified MHC/direct/fluorescence; filed as Kd, often an IC50 or EC50 that approximates it; ≥ and ≤ were set here for values at or beyond the usual limits of such assays; conditions: source organism: Entamoeba histolytica
[17] = biological target: HLA-B*46:01; experiment: IEDB peptide-MHC binding, purified MHC/competitive/fluorescence; filed as Kd, often an IC50 or EC50 that approximates it; ≥ and ≤ were set here for values at or beyond the usual limits of such assays; conditions: source organism: Shigella flexneri 5 str. 8401
[18] = source organism: SARS coronavirus Tor2
[19] = source organism: Mammarenavirus juninense
[20] = source organism: Mammarenavirus lassaense
[21] = source organism: West Nile virus
[22] = source organism: Mammarenavirus brazilense
[23] = source organism: Lymphocytic choriomeningitis virus (strain Armstrong)
[24] = source organism: Influenza A virus (A/SW/MN/12883/00(H1N2))

## ADYSVLYNST
[1]; [18]
  Kd: ≥ 69600 nM
[2]; [18]
  Kd: 768 nM
[3]; [18]
  Kd: ≥ 45700 nM
[4]; [18]
  Kd: ≥ 30200 nM
[5]; [18]
  Kd: 1970 nM
[6]; [18]
  Kd: ≥ 70500 nM

## CSDAFYPFY
[7]
  Kd: ≥ 5000 nM
[8]
  Kd: ≥ 5000 nM
[9]
  Kd: ≥ 5000 nM

## DELPFVAPV
[10]; source organism: Burkholderia ambifaria AMMD
  Kd: 0.6 nM

## EDIDSVETL
[1]; [19]
  Kd: 1880 nM
[2]; [19]
  Kd: ≥ 24300 nM
[3]; [19]
  Kd: ≥ 28300 nM
[4]; [19]
  Kd: 1250 nM
[5]; [19]
  Kd: 12300 nM
[6]; [19]
  Kd: 14400 nM

## EELITDVEFL
[1]; [20]
  Kd: 3120 nM
[2]; [20]
  Kd: 17900 nM
[3]; [20]
  Kd: 6370 nM
[4]; [20]
  Kd: 9850 nM
[5]; [20]
  Kd: 5160 nM
[6]; [20]
  Kd: 19000 nM

## EERKNFLEL
[11]; [21]
  Kd: ≥ 20000 nM
[10]; [21]
  Kd: 48.4 nM

## EGIYKLSSM
[12]
  Kd: 43.1 nM

## EPYPPKGPV
[13]; source organism: Vibrio vulnificus YJ016
  Kd: 828 nM

## FPSVRYQNI
[13]; source organism: Yersinia pestis KIM10+
  Kd: 1020 nM

## GDRWFLNRFT
[1]; [18]
  Kd: ≥ 69600 nM
[2]; [18]
  Kd: ≥ 70000 nM
[3]; [18]
  Kd: ≥ 70100 nM
[4]; [18]
  Kd: ≥ 70800 nM
[5]; [18]
  Kd: ≥ 70200 nM
[6]; [18]
  Kd: ≥ 70500 nM

## GEDGCWYGM
[14]; source organism: Dengue virus
  Kd: ≥ 20000 nM
[10]; source organism: Dengue virus
  Kd: 1260 nM

## GEPKMTKAL
[1]; [20]
  Kd: 1770 nM
[2]; [20]
  Kd: ≥ 68100 nM
[3]; [20]
  Kd: ≥ 49900 nM
[4]; [20]
  Kd: 178 nM
[5]; [20]
  Kd: ≥ 20300 nM
[6]; [20]
  Kd: ≥ 77500 nM

## HENKNATWCL
[1]; [22]
  Kd: 915 nM
[2]; [22]
  Kd: 5060 nM
[3]; [22]
  Kd: 15300 nM
[4]; [22]
  Kd: 54.4 nM
[5]; [22]
  Kd: 4540 nM
[6]; [22]
  Kd: 16600 nM

## IAIEFKSRF
[15]
  Kd: 279 nM

## IEVALRTLLL
[1]; [23]
  Kd: 1290 nM
[2]; [23]
  Kd: ≥ 70000 nM
[3]; [23]
  Kd: 1830 nM
[4]; [23]
  Kd: 24.1 nM
[5]; [23]
  Kd: 9310 nM
[6]; [23]
  Kd: 1710 nM

## IPVEPAFQV
[13]; source organism: Vibrio antiquarius
  Kd: 254 nM

## KETSYTTTI
[1]; [18]
  Kd: 20.7 nM
[2]; [18]
  Kd: 183 nM
[3]; [18]
  Kd: 125 nM
[4]; [18]
  Kd: 59.6 nM
[5]; [18]
  Kd: 90.8 nM
[6]; [18]
  Kd: ≥ 77500 nM

## KHIKPIVEF
[16]
  Kd: 70.5 nM

## LAMYHGQTY
[17]
  Kd: ≥ 20000 nM

## LEQWNLVIGF
[1]; [18]
  Kd: 3940 nM
[2]; [18]
  Kd: 3980 nM
[3]; [18]
  Kd: 48.8 nM
[4]; [18]
  Kd: 565 nM
[5]; [18]
  Kd: 16.1 nM
[6]; [18]
  Kd: 155 nM

## MEEPAPAGF
[11]; [21]
  Kd: 2570 nM
[10]; [21]
  Kd: 19.8 nM

## NECAQVLSEM
[1]; [18]
  Kd: 801 nM
[2]; [18]
  Kd: 4950 nM
[3]; [18]
  Kd: 121 nM
[4]; [18]
  Kd: 12200 nM
[5]; [18]
  Kd: 253 nM
[6]; [18]
  Kd: 177 nM

## NENPGGYCL
[1]; [20]
  Kd: 4920 nM
[2]; [20]
  Kd: 178 nM
[3]; [20]
  Kd: 259 nM
[4]; [20]
  Kd: 278 nM
[5]; [20]
  Kd: 152 nM
[6]; [20]
  Kd: 73.1 nM

## NEVGARILT
[11]; [24]
  Kd: ≥ 20000 nM
[14]; [24]
  Kd: ≥ 20000 nM
[10]; [24]
  Kd: 658 nM
